# The RNAGym collection of RNA variant scans (doi:10.1093/molbev/msab373)
# B1: Azoarcus group I ribozyme (parent)
# chain: GUGCCUUGCGCCGGGAAACCACGCAAGGGAUGGUGUCAAAUUCGGCGAAACCUAAGCGCCCGCCCGGGCGUAUGGCAACGCCGAGCCAAGCUUCGGCGCCUGCGCCGAUGAAGGUGUAGAGACUAGACGGCACCCACCUAAGGCAAACGCUAUGGUGAAGGCAUAGUCCAGGGAGUGGCGAAAGUCACACAAACCGG
# Variants of: B1
# Assay: reverse-splicing fitness (ratio to wild type); higher = more active; in vitro selection; Mg2+ level not given
# Summary of the method: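 An in vitro group I ribozyme library with randomized positions was T7-transcribed and gel-purified. In triplicate, 10 pmol RNA in EPPS pH 7.5 was reacted with 50 pmoles of a 30-nt RNA substrate for 1 h at 37 °C across several added MgCl2 levels (1–48 mM), then stopped with EDTA. Products were reverse transcribed from a substrate-complementary primer, PCR-amplified and sequenced (HiSeq 4000). Fitness is a variant's read proportion after selection over that before, normalised to wild type.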
row,Variant,reverse-splicing fitness
1,C82A A111U A120U A145G C150A C169G,0.00618
2,C82A A111U A120U A145G C150A C169G U176A,0.0104
3,C82A A111U A120U A145G C150A C169G U176C,0.00688
4,C82A A111U A120U A145G C150A C169G U176G,0.003
5,C82A A111U A120U A145G C150A C169U,0.00475
6,C82A A111U A120U A145G C150A C169U U176A,0.00626
7,C82A A111U A120U A145G C150A C169U U176C,0.00543
8,C82A A111U A120U A145G C150A C169U U176G,0.00326
9,C82A A111U A120U A145G C150A U176A,0.00879
10,C82A A111U A120U A145G C150A U176C,0.00989
11,C82A A111U A120U A145G C150A U176G,0.00328
12,C82A A111U A120U A145G C150G,0.00842
13,C82A A111U A120U A145G C150G C169A,0.00923
14,C82A A111U A120U A145G C150G C169A U176A,0.0119
15,C82A A111U A120U A145G C150G C169A U176C,0.0099
16,C82A A111U A120U A145G C150G C169A U176G,0.00618
17,C82A A111U A120U A145G C150G C169G,0.00757
18,C82A A111U A120U A145G C150G C169G U176A,0.00885
19,C82A A111U A120U A145G C150G C169G U176C,0.00639
20,C82A A111U A120U A145G C150G C169G U176G,0.00413
21,C82A A111U A120U A145G C150G C169U,0.00854

row,Variant,reverse-splicing fitness
1,C82A A111U A120U A145G C150G C169U U176A,0.00862
2,C82A A111U A120U A145G C150G C169U U176C,0.0089
3,C82A A111U A120U A145G C150G C169U U176G,0.00513
4,C82A A111U A120U A145G C150G U176A,0.00697
5,C82A A111U A120U A145G C150G U176C,0.00894
6,C82A A111U A120U A145G C150G U176G,0.00434
7,C82A A111U A120U A145G C150U,0.0195
8,C82A A111U A120U A145G C150U C169A,0.00728
9,C82A A111U A120U A145G C150U C169A U176A,0.00815
10,C82A A111U A120U A145G C150U C169A U176C,0.00423
11,C82A A111U A120U A145G C150U C169A U176G,0.00259
12,C82A A111U A120U A145G C150U C169G,0.00728
13,C82A A111U A120U A145G C150U C169G U176A,0.00984
14,C82A A111U A120U A145G C150U C169G U176C,0.00667
15,C82A A111U A120U A145G C150U C169G U176G,0.00271
16,C82A A111U A120U A145G C150U C169U,0.00663
17,C82A A111U A120U A145G C150U C169U U176A,0.00537
18,C82A A111U A120U A145G C150U C169U U176C,0.00506
19,C82A A111U A120U A145G C150U C169U U176G,0.00286
20,C82A A111U A120U A145G C150U U176A,0.01
21,C82A A111U A120U A145G C150U U176C,0.0125

row,Variant,reverse-splicing fitness
1,C82A A111U A120U A145G C150U U176G,0.00393
2,C82A A111U A120U A145G C169A,0.0037
3,C82A A111U A120U A145G C169A U176A,0.00409
4,C82A A111U A120U A145G C169A U176C,0.00356
5,C82A A111U A120U A145G C169A U176G,0.00239
6,C82A A111U A120U A145G C169G,0.00467
7,C82A A111U A120U A145G C169G U176A,0.00391
8,C82A A111U A120U A145G C169G U176C,0.00486
9,C82A A111U A120U A145G C169G U176G,0.00182
10,C82A A111U A120U A145G C169U,0.00488
11,C82A A111U A120U A145G C169U U176A,0.00414
12,C82A A111U A120U A145G C169U U176C,0.00428
13,C82A A111U A120U A145G C169U U176G,0.00182
14,C82A A111U A120U A145G U176A,0.00766
15,C82A A111U A120U A145G U176C,0.0114
16,C82A A111U A120U A145G U176G,0.00319
17,C82A A111U A120U A145U,0.0216
18,C82A A111U A120U A145U C150A,0.00619
19,C82A A111U A120U A145U C150A C169A,0.00286
20,C82A A111U A120U A145U C150A C169A U176A,0.00303
21,C82A A111U A120U A145U C150A C169A U176C,0.00269

row,Variant,reverse-splicing fitness
1,C82A A111U A120U A145U C150A C169A U176G,0.00212
2,C82A A111U A120U A145U C150A C169G,0.00274
3,C82A A111U A120U A145U C150A C169G U176A,0.00333
4,C82A A111U A120U A145U C150A C169G U176C,0.00291
5,C82A A111U A120U A145U C150A C169G U176G,0.00203
6,C82A A111U A120U A145U C150A C169U,0.00298
7,C82A A111U A120U A145U C150A C169U U176A,0.00317
8,C82A A111U A120U A145U C150A C169U U176C,0.00277
9,C82A A111U A120U A145U C150A C169U U176G,0.00245
10,C82A A111U A120U A145U C150A U176A,0.00486
11,C82A A111U A120U A145U C150A U176C,0.00625
12,C82A A111U A120U A145U C150A U176G,0.00236
13,C82A A111U A120U A145U C150G,0.00631
14,C82A A111U A120U A145U C150G C169A,0.00467
15,C82A A111U A120U A145U C150G C169A U176A,0.00398
16,C82A A111U A120U A145U C150G C169A U176C,0.00325
17,C82A A111U A120U A145U C150G C169A U176G,0.00285
18,C82A A111U A120U A145U C150G C169G,0.00379
19,C82A A111U A120U A145U C150G C169G U176A,0.00327
20,C82A A111U A120U A145U C150G C169G U176C,0.00281
21,C82A A111U A120U A145U C150G C169G U176G,0.00241
